Reference: article PMC4869717 (ACS chemical biology, 2015)
Changes are numbered by the printed parent chain. Names may count otherwise.

B1: emerin fragment from amino acid 1 to amino acid 187 (EmN), wild type, His-tagged (domain or fragment, human, UniProt P50402 1-187, looked up)
chain: MDNYADLSDTELTTLLRRYNIPHGPVVGSTRRLYEKKIFEYETQRRRLSPPSSSAASSYSFSDLNSTRGDADMYDLPKKEDALLYQSKGYNDDYYEESYFTTRTYGEPESAGPSRAVRQSVTSFPDADAFHHQVHDDDLLSSSEEECKDRERPMYGRDSAYQSITHYRPVSASRSSLDLSYYPTSSS
B2: EmN variant P183T (domain or fragment, human, UniProt P50402 1-187, looked up)
chain: B1 chain with P183T
B3: EmN variant S54F (domain or fragment, human, UniProt P50402 1-187, looked up)
chain: B1 chain with S54F
B4: EmN variant P183H (domain or fragment, human, UniProt P50402 1-187, looked up)
chain: B1 chain with P183H
B5: EmN variant Q133H (domain or fragment, human, UniProt P50402 1-187, looked up)
chain: B1 chain with Q133H
B6: emerin fragment from amino acid 1 to amino acid 187 (EmN), wild type, His-tag cleaved (domain or fragment, human, UniProt P50402 1-187, looked up)
chain: B1 chain

Assays:
AUC = molecular target: the molecule itself; test: AUC
[1] = molecular target: the molecule itself; test: thioflavin T fluorescence

Protein	binding result [1]	further results
B1	–	stoichiometry N (AUC): 2
B2	binds	–
B3	binds	–
B4	binds	–
B5	binds	–
B6	–	fold increase in ThT fluorescence intensity at 480 nm [1]: 10 fold
